Sequences and labels used below:
B1: Cannabinoid receptor 1 (Homo sapiens), P21554 (parent)
chain: MKSILDGLADTTFRTITTDLLYVGSNDIQYEDIKGDMASKLGYFPQKFPLTSFRGSPFQEKMTAGDNPQLVPADQVNITEFYNKSLSSFKENEENIQCGENFMDIECFMVLNPSQQLAIAVLSLTLGTFTVLENLLVLCVILHSRSLRCRPSYHFIGSLAVADLLGSVIFVYSFIDFHVFHRKDSRNVFLFKLGGVTASFTASVGSLFLTAIDRYISIHRPLAYKRIVTRPKAVVAFCLMWTIAIVIAVLPLLGWNCEKLQSVCSDIFPHIDETYLMFWIGVTSVLLLFIVYAYMYILWKAHSHAVRMIQRGTQKSIIIHTSEDGKVQVTRPDQARMDIRLAKTLVLILVVLIICWGPLLAIMVYDVFGKMNKLIKTVFAFCSMLCLLNSTVNPIIYALRSKDLRHAFRSMFPSCEGTAQPLDNSMGDSDCLHKHANNAASVHRAAESCIKSTVKIAKVTMSVSTDTSAEAL
partner: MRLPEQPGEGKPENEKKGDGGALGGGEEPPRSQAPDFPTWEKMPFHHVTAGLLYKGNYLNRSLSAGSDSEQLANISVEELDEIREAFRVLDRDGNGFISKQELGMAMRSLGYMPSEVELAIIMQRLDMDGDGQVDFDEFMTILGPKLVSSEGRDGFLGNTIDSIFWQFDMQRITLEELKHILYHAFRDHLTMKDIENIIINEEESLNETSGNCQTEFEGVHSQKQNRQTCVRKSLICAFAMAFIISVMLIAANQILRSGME

Results on 1 variant are retold here after IntAct's records for PubMed 30073165.

Variants of B1 are the subject of the test. Particulars: with cabp8_human CALN1, Q9BXU9.
As to T321A;S322A, the “effect of a mutation on the interaction” value is on record as “disrupting interaction strength”.
